{"source": "patent US20260184748A1", "about": "(University of Pennsylvania, published 2026)", "binders": {"B1": {"name": "octadecaneuropeptide (ODN) (peptide)", "peptide": "QATVGDVNTDRPGLLDLK", "modifications": "also: synthesised on Rink amide resin, C-terminal amide not given here outright"}}, "experiment_in_all_cases": "cell-based or functional assay", "key": {"[1]": {"molecular_target": "MRGPRX1 (UniProt Q96LB2 1-322)", "sequence (Q96LB2 whole entry)": "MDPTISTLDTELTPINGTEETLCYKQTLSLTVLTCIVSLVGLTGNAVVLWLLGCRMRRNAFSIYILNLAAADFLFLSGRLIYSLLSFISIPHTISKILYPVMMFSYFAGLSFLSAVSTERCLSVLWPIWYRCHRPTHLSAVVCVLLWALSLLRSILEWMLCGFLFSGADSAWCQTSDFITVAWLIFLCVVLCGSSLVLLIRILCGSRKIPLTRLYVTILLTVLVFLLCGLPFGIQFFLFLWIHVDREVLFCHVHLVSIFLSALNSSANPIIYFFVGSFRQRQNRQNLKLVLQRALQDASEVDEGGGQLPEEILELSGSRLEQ"}, "[2]": {"molecular_target": "MC1R (UniProt Q01726 1-317)", "sequence (Q01726 whole entry)": "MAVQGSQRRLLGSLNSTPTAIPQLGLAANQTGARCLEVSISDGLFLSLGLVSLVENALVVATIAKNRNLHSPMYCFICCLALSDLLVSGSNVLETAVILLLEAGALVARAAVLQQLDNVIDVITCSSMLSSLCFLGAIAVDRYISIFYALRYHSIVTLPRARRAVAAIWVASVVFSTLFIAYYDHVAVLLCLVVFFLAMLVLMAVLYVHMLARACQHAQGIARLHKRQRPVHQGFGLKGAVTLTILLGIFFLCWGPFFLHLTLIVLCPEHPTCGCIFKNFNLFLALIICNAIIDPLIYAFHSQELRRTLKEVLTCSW"}, "[3]": {"molecular_target": "T1, AGTRL1 (UniProt P35414 1-380)", "T1 sequence (looked up)": "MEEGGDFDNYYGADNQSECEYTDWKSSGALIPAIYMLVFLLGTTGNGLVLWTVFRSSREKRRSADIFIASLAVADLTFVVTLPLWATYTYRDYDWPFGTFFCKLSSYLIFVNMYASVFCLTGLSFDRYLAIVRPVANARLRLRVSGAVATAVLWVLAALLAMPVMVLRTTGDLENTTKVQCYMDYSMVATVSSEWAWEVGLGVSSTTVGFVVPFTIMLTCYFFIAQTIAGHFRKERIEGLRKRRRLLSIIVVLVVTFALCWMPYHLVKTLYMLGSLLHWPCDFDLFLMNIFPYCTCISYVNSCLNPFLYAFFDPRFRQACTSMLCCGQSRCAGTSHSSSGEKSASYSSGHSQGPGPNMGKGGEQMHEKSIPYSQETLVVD"}, "[4]": {"molecular_target": "LTB4R (UniProt Q15722 1-352)", "sequence (Q15722 whole entry)": "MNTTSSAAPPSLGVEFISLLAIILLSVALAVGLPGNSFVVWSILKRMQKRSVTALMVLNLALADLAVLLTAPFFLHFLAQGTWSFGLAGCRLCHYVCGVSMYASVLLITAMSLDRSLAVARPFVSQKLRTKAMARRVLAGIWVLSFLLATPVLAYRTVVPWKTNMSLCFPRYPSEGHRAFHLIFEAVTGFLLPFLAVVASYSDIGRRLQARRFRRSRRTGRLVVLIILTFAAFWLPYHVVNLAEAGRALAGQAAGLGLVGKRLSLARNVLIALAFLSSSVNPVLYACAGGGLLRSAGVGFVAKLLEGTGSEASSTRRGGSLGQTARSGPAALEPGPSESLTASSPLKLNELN"}, "[5]": {"molecular_target": "SCTR (UniProt P47872 23-440)", "sequence (P47872 23-440 limits assumed)": "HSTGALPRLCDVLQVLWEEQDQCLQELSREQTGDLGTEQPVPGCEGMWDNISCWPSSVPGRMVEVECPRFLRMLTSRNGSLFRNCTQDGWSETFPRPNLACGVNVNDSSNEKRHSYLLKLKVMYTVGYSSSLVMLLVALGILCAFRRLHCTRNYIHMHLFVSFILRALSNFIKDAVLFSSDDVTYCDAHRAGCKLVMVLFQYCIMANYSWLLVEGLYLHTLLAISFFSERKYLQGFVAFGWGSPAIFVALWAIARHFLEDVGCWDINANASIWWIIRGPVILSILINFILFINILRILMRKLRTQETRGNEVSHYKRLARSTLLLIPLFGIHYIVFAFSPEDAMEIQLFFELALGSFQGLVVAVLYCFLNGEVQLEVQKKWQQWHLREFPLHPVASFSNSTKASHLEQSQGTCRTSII"}, "[6]": {"molecular_target": "T2, ADORA3 (UniProt P0DMS8 1-318)", "T2 sequence (looked up)": "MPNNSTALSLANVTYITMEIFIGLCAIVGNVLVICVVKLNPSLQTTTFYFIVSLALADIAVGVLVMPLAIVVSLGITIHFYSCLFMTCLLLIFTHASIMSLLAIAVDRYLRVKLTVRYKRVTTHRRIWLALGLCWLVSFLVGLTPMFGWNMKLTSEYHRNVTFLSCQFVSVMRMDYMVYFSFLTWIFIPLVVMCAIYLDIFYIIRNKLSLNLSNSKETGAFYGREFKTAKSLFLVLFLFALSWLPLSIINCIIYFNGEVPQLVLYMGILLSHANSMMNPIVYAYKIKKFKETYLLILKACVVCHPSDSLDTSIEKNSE"}, "[7]": {"molecular_target": "T3, CALCR-RAMP3 (UniProt P30988 25-474; O60896 24-148, limits assumed)", "T3 sequence (looked up) 1": "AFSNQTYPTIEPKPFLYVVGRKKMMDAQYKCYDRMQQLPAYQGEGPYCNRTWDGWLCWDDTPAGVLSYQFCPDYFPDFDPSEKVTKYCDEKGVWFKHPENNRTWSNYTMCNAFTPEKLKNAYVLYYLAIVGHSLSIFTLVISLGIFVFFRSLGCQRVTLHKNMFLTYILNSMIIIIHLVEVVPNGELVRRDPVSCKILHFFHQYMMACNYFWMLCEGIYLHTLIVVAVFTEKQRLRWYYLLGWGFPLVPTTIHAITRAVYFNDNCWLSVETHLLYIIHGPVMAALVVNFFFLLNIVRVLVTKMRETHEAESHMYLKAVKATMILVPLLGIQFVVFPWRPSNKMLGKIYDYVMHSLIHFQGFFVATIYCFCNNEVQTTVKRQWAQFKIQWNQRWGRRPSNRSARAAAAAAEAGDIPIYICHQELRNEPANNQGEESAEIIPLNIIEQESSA", "T3 sequence (looked up) 2": "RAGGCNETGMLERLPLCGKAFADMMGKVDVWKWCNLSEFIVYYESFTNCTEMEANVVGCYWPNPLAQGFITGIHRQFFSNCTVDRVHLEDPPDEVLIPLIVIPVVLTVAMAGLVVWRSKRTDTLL"}, "[8]": {"molecular_target": "P2RY6 (UniProt Q15077 1-328)", "sequence (Q15077 whole entry)": "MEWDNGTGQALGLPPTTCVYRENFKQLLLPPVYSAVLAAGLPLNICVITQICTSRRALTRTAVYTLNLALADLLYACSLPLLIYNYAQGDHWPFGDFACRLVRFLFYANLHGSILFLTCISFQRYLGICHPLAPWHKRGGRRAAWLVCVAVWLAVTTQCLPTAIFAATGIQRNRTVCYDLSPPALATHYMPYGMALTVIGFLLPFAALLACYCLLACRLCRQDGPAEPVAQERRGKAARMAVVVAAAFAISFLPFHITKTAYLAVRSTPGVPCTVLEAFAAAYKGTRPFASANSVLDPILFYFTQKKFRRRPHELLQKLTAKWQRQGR"}, "[9]": {"molecular_target": "MC3R (UniProt P41968 1-323)", "sequence (P41968 whole entry)": "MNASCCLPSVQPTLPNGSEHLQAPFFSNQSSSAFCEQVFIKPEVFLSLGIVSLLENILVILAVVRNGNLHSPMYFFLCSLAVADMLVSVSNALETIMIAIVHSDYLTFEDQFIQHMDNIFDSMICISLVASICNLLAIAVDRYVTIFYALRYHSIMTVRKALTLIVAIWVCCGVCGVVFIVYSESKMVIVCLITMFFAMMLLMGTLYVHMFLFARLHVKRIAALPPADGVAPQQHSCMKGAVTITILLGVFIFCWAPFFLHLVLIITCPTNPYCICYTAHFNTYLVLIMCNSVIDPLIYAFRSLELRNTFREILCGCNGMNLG"}, "[10]": {"molecular_target": "HTR2A (UniProt P28223 1-471)", "sequence (P28223 whole entry)": "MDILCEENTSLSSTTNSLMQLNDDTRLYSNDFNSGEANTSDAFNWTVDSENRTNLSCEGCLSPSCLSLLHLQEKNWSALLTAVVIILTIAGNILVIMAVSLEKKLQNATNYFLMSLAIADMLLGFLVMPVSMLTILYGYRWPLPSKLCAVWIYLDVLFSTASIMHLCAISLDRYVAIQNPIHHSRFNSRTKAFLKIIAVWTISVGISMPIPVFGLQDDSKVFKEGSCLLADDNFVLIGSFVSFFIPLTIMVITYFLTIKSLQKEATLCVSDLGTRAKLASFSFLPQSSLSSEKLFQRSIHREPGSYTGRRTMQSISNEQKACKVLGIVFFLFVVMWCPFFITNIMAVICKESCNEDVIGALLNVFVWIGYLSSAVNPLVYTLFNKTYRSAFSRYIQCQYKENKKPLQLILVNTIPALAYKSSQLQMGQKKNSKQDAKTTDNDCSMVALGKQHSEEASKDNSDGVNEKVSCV"}, "[11]": {"molecular_target": "SSTR5 (UniProt P35346 1-364)", "sequence (P35346 whole entry)": "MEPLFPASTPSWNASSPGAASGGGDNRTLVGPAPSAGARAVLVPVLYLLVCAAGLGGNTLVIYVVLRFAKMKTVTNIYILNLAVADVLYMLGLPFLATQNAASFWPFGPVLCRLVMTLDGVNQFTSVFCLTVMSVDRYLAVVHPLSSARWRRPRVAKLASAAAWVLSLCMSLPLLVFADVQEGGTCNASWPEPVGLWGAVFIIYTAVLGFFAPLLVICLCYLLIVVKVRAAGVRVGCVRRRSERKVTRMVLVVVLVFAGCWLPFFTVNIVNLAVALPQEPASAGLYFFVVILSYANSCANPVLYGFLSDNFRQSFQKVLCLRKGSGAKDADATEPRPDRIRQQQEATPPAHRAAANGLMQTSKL"}, "[12]": {"molecular_target": "T4, PTHR1 (UniProt Q03431 27-593)", "T4 sequence (looked up)": "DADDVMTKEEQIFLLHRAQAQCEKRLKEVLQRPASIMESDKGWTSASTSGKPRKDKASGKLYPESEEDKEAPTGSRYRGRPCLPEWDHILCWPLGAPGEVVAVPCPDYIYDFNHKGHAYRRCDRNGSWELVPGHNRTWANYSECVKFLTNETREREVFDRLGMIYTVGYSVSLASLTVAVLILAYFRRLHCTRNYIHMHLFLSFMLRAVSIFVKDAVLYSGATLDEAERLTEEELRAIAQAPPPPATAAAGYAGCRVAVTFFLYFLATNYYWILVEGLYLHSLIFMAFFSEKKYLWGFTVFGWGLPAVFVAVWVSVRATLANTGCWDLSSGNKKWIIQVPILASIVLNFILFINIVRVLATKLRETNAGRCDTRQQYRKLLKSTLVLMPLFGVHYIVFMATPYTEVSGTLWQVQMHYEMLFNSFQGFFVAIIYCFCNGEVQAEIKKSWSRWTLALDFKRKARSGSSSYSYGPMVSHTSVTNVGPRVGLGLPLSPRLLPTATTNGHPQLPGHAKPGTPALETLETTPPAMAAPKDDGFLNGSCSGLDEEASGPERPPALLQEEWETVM"}, "[13]": {"molecular_target": "GRPR (UniProt P30550 1-384)", "sequence (P30550 whole entry)": "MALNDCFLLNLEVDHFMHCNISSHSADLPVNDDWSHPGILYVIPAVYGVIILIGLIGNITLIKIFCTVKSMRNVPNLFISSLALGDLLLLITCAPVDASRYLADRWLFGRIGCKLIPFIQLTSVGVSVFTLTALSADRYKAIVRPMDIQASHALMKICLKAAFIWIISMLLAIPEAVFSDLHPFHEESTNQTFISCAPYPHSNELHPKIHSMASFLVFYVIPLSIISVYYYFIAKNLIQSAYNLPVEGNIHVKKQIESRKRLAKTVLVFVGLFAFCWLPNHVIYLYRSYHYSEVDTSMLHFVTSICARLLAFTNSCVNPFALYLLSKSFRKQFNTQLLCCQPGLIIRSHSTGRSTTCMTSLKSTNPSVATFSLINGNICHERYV"}, "[14]": {"molecular_target": "MLNR (UniProt O43193 1-412)", "sequence (O43193 whole entry)": "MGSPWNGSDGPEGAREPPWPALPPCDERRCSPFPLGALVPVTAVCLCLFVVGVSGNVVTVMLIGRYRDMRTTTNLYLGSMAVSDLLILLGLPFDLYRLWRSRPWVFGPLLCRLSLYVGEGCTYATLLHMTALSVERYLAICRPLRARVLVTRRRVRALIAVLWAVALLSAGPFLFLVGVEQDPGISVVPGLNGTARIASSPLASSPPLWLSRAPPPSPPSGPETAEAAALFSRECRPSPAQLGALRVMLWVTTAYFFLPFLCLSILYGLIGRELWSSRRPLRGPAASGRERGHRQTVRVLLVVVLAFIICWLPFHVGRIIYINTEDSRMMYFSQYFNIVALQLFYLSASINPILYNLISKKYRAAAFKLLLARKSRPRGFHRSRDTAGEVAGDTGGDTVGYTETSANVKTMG"}, "[15]": {"molecular_target": "P2RY4 (UniProt P51582 1-365)", "sequence (P51582 whole entry)": "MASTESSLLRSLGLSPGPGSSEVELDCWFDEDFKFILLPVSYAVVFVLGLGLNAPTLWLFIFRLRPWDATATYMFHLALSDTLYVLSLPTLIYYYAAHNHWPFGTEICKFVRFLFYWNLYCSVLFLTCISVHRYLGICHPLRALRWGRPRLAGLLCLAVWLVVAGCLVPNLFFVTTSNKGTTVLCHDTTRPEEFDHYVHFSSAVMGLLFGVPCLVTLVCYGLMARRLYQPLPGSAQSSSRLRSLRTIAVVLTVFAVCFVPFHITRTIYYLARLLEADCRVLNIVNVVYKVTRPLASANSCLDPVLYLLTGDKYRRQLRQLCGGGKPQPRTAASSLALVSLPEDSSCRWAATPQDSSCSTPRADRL"}}, "note": "Where no end group is shown, it is not given here."}
{"binder": "B1", "values": [{"measurement": "% Activity, arrestin, antagonist mode, 2.5 uM", "setting": "[1]", "result": 3.8, "unit": "%"}, {"measurement": "% Activity, arrestin, antagonist mode, 2.5 uM", "setting": "[2]", "result": 0.4, "unit": "%"}, {"measurement": "% Activity, arrestin, antagonist mode, 2.5 uM", "setting": "[3]", "result": -23.4, "unit": "%"}, {"measurement": "% Activity, arrestin, antagonist mode, 2.5 uM", "setting": "[4]", "result": 10.3, "unit": "%"}, {"measurement": "% Activity, arrestin, antagonist mode, 2.5 uM", "setting": "[5]", "result": 7.7, "unit": "%"}, {"measurement": "% Activity, arrestin, antagonist mode, 2.5 uM", "setting": "[6]", "result": 0.5, "unit": "%"}, {"measurement": "% Activity, arrestin, antagonist mode, 2.5 uM", "setting": "[7]", "result": -0.1, "unit": "%"}, {"measurement": "% Activity, arrestin, antagonist mode, 2.5 uM", "setting": "[8]", "result": -15.1, "unit": "%"}, {"measurement": "% Activity, arrestin, antagonist mode, 2.5 uM", "setting": "[9]", "result": -2.1, "unit": "%"}, {"measurement": "% Activity, arrestin, antagonist mode, 2.5 uM", "setting": "[10]", "result": -9.7, "unit": "%"}, {"measurement": "% Activity, arrestin, antagonist mode, 2.5 uM", "setting": "[11]", "result": -17.3, "unit": "%"}, {"measurement": "% Activity, arrestin, antagonist mode, 2.5 uM", "setting": "[12]", "result": -5.7, "unit": "%"}, {"measurement": "% Activity, arrestin, antagonist mode, 2.5 uM", "setting": "[13]", "result": -12.2, "unit": "%"}, {"measurement": "% Activity, arrestin, antagonist mode, 2.5 uM", "setting": "[14]", "result": -5.5, "unit": "%"}, {"measurement": "% Activity, arrestin, antagonist mode, 2.5 uM", "setting": "[15]", "result": 12.9, "unit": "%"}]}
